Here are results for one molecule from US20210283221A1.

In the experiment the target is human complement C5 with an unidentified amino acid substitution at Arg885 (in serum of the Example 4 patient) (human), P01031. The experiment in a line: cell-based or functional assay.

B1: Coversin protein, Q5YD59 19-168 (protein)
chain: DSESDCTGSEPVDAFQAFSEGKEAYVLVRSTDPKARDCLKGEPAGEKQDNTLPVMMTFKNGTDWASTDWTFTLDGAKVTATLGNLTQNREVVYDSQSHHCHVDKVEKEVPDYEMWMLDAGGLEVEVECCRQKLEELASGRNQMYPHLKDC
In turn, B1 came in with a residual CH50 (U Eq/ml) as % of baseline in serum of the Example 4 patient at Coversin approximately 15 ug/ml (% of baseline CH50) of less than 5.
